Source: the supplement of paper PMC5998384

Columns and labels:
HeLa Kyoto [1] = test: solubility in G1/S (NP-40 vs SDS abundance) (log2 ratio); higher = more soluble; settings: cell cycle stage: G1/S
HeLa Kyoto [2] = test: melting temperature (median over replicates), in situ; higher = more thermally stable
HeLa Kyoto [3] = test: solubility change mitosis vs G1/S (difference of NP-40 vs SDS log2 ratios) (log2 ratio difference); higher = more soluble in mitosis
HeLa Kyoto [4] = test: thermal stability score vs G1/S (z-score of summed log2 fold changes over temperatures); higher = more thermally stable than in G1/S
[5] = cell cycle stage: early G1 (4.5 h after nocodazole release)
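For melting temperature (median over replicates), in situ in this document: HeLa Kyoto cells synchronized by double thymidine or nocodazole block, proteins quantified by TMT10plex mass spectrometry, three independent biological replicates.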
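For solubility change mitosis vs G1/S (difference of NP-40 vs SDS log2 ratios) in this document: synchronized HeLa Kyoto cells (double thymidine block for G1/S, nocodazole release for mitosis), protein amounts in NP-40 versus SDS lysates quantified by mass spectrometry, three biological replicates.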
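For solubility in G1/S (NP-40 vs SDS abundance) in this document: HeLa Kyoto cells arrested at G1/S by double thymidine block, proteins quantified by TMT10plex mass spectrometry in mild NP-40 versus SDS extracts, three biological replicates.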
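For thermal stability score vs G1/S (z-score of summed log2 fold changes over temperatures) in this document: synchronized HeLa Kyoto cells, proteins quantified by TMT10plex mass spectrometry, three biological replicates, mitosis taken 0.5 h after nocodazole release, G1/S directly after double thymidine block.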

| Sequence | solubility in G1/S (log2) (HeLa Kyoto [1]) | melting temperature (HeLa Kyoto [2]; cell cycle stage: G1/S) [°C] | melting temperature (HeLa Kyoto [2]; cell cycle stage: mitosis) [°C] | solubility change mitosis (log2) (HeLa Kyoto [3]) | thermal stability score (HeLa Kyoto [4]; [5]) | thermal stability score (HeLa Kyoto [4]; cell cycle stage: mitosis) |
| --- | --- | --- | --- | --- | --- | --- |
| MAEPVSPLKHFVLAKKAITAIFDQLLEFVTEGSHFVEATYKNPELDRIATEDDLVEMQGYKDKLSIIGEVLSRRHMKVAFFGRTSSGKSSVINAMLWDKVLPSGIGHITNCFLSVEGTDGDKAYLMTEGSDEKKSVKTVNQLAHALHMDKDLKAGCLVRVFWPKAKCALLRDDLVLVDSPGTDVTTELDSWIDKFCLDADVFVLVANSESTLMNTEKHFFHKVNERLSKPNIFILNNRWDASASEPEYMEDVRRQHMERCLHFLVEELKVVNALEAQNRIFFVSAKEVLSARKQKAQGMPESGVALAEGFHARLQEFQNFEQIFEECISQSAVKTKFEQHTIRAKQILATVKNIMDSVNLAAEDKRHYSVEEREDQIDRLDFIRNQMNLLTLDVKKKIKEVTEEVANKVSCAMTDEICRLSVLVDEFCSEFHPNPDVLKIYKSELNKHIEDGMGRNLADRCTDEVNALVLQTQQEIIENLKPLLPAGIQDKLHTLIPCKKFDLSYNLNYHKLCSDFQEDIVFRFSLGWSSLVHRFLGPRNAQRVLLGLSEPIFQLPRSLASTPTAPTTPATPDNASQEELMITLVTGLASVTSRTSMGIIIVGGVIWKTIGWKLLSVSLTMYGALYLYERLSWTTHAKERAFKQQFVNYATEKLRMIVSSTSANCSHQVKQQIATTFARLCQQVDITQKQLEEEIARLPKEIDQLEKIQNNSKLLRNKAVQLENELENFTKQFLPSSNEES [MFN1] | -0.168 | 52 | 51.3 | -0.0897 | -0.212 | -0.832 |
| MAEQEPTAEQLAQIAAENEEDEHSVNYKPPAQKSIQEIQELDKDDESLRKYKEALLGRVAVSADPNVPNVVVTGLTLVCSSAPGPLELDLTGDLESFKKQSFVLKEGVEYRIKISFRVNREIVSGMKYIQHTYRKGVKIDKTDYMVGSYGPRAEEYEFLTPVEEAPKGMLARGSYSIKSRFTDDDKTDHLSWEWNLTIKKDWKD [ARHGDIA] | 0.25 | 51.5 | 51.7 | -0.109 | 0.408 | -2.01 |
| MAERAALEELVKLQGERVRGLKQQKASAELIEEEVAKLLKLKAQLGPDESKQKFVLKTPKGTRDYSPRQMAVREKVFDVIIRCFKRHGAEVIDTPVFELKETLMGKYGEDSKLIYDLKDQGGELLSLRYDLTVPFARYLAMNKLTNIKRYHIAKVYRRDNPAMTRGRYREFYQCDFDIAGNFDPMIPDAECLKIMCEILSSLQIGDFLVKVNDRRILDGMFAICGVSDSKFRTICSSVDKLDKVSWEEVKNEMVGEKGLAPEVADRIGDYVQQHGGVSLVEQLLQDPKLSQNKQALEGLGDLKLLFEYLTLFGIDDKISFDLSLARGLDYYTGVIYEAVLLQTPAQAGEEPLGVGSVAAGGRYDGLVGMFDPKGRKVPCVGLSIGVERIFSIVEQRLEALEEKIRTTETQVLVASAQKKLLEERLKLVSELWDAGIKAELLYKKNPKLLNQLQYCEEAGIPLVAIIGEQELKDGVIKLRSVTSREEVDVRREDLVEEIKRRTGQPLCIC [HARS] | 0.354 | 53.5 | 53 | -0.113 | 5.06 | 4.5 |
| MAERGELDLTGAKQNTGVWLVKVPKYLSQQWAKASGRGEVGKLRIAKTQGRTEVSFTLNEDLANIHDIGGKPASVSAPREHPFVLQSVGGQTLTVFTESSSDKLSLEGIVVQRAECRPAASENYMRLKRLQIEESSKPVRLSQQLDKVVTTNYKPVANHQYNIEYERKKKEDGKRARADKQHVLDMLFSAFEKHQYYNLKDLVDITKQPVVYLKEILKEIGVQNVKGIHKNTWELKPEYRHYQGEEKSD [GTF2F2] | 0.436 | 52.6 | 52.6 | -0.0476 | 0.0893 | 0.0418 |
| MAERGYSFSLTTFSPSGKLVQIEYALAAVAGGAPSVGIKAANGVVLATEKKQKSILYDERSVHKVEPITKHIGLVYSGMGPDYRVLVHRARKLAQQYYLVYQEPIPTAQLVQRVASVMQEYTQSGGVRPFGVSLLICGWNEGRPYLFQSDPSGAYFAWKATAMGKNYVNGKTFLEKRYNEDLELEDAIHTAILTLKESFEGQMTEDNIEVGICNEAGFRRLTPTEVKDYLAAIA [PSMA2] | 0.391 | 58.3 | 60.8 | -0.045 | -1.52 | -1.53 |
| MAERRRHKKRIQEVGEPSKEEKAVAKYLRFNCPTKSTNMMGHRVDYFIASKAVDCLLDSKWAKAKKGEEALFTTRESVVDYCNRLLKKQFFHRALKVMKMKYDKDIKKEKDKGKAESGKEEDKKSKKENIKDEKTKKEKEKKKDGEKEESKKEETPGTPKKKETKKKFKLEPHDDQVFLDGNEVYVWIYDPVHFKTFVMGLILVIAVIAATLFPLWPAEMRVGVYYLSVGAGCFVASILLLAVARCILFLIIWLITGGRHHFWFLPNLTADVGFIDSFRPLYTHEYKGPKADLKKDEKSETKKQQKSDSEEKSDSEKKEDEEGKVGPGNHGTEGSGGERHSDTDSDRREDDRSQHSSGNGNDFEMITKEELEQQTDGDCEEDEEEENDGETPKSSHEKS [SEC62] | -0.134 | 55.5 | 55.4 | 0.0142 | -4.12 | -4.37 |
| MAESPTEEAATAGAGAAGPGASSVAGVVGVSGSGGGFGPPFLPDVWAAAAAAGGAGGPGSGLAPLPGLPPSAAAHGAALLSHWDPTLSSDWDGERTAPQCLLRIKRDIMSIYKEPPPGMFVVPDTVDMTKIHALITGPFDTPYEGGFFLFVFRCPPDYPIHPPRVKLMTTGNNTVRFNPNFYRNGKVCLSILGTWTGPAWSPAQSISSVLISIQSLMTENPYHNEPGFEQERHPGDSKNYNECIRHETIRVAVCDMMEGKCPCPEPLRGVMEKSFLEYYDFYEVACKDRLHLQGQTMQDPFGEKRGHFDYQSLLMRLGLIRQKVLERLHNENAEMDSDSSSSGTETDLHGSLRV [UBE2Z] | 0.403 | 52.7 | 52.8 | -0.169 | -0.171 | -0.398 |
| MAETSEEVAVLVQRVVKDITNAFRRNPHIDEIGLIPCPEARYNRSPIVLVENKLGVESWCVKFLLPYVHNKLLLYRTRKQWLNRDELIDVTCTLLLLNPDFTTAWNVRKELILSGTLNPIKDLHLGKLALTKFPKSPETWIHRRWVLQQLIQETSLPSFVTKGNLGTIPTERAQRLIQEEMEVCGEAAGRYPSNYNAWSHRIWVLQHLAKLDVKILLDELSSTKHWASMHVSDHSGFHYRQFLLKSLISQTVIDSSVMEQNPLRSEPALVPPKDEEAAVSTEEPRINLPHLLEEEVEFSTDLIDSYPGHETLWCHRRHIFYLQHHLNAGSQLSQAMEVDGLNDSSKQGYSQETKRLKRTPVPDSLGLEMEHRFIDQVLSTCRNVEQARFASAYRKWLVTLSQ [PTAR1] | 0.0716 | 53 | 52.1 | -0.125 | -1.63 | -2.24 |
| MAFLKLRDQPSLVQAIFNGDPDEVRALIFKKEDVNFQDNEKRTPLHAAAYLGDAEIIELLILSGARVNAKDSKWLTPLHRAVASCSEEAVQVLLKHSADVNARDKNWQTPLHIAAANKAVKCAEALVPLLSNVNVSDRAGRTALHHAAFSGHGEMVKLLLSRGANINAFDKKDRRAIHWAAYMGHIEVVKLLVSHGAEVTCKDKKSYTPLHAAASSGMISVVKYLLDLGVDMNEPNAYGNTPLHVACYNGQDVVVNELIDCGAIVNQKNEKGFTPLHFAAASTHGALCLELLVGNGADVNMKSKDGKTPLHMTALHGRFSRSQTIIQSGAVIDCEDKNGNTPLHIAARYGHELLINTLITSGADTAKRGIHGMFPLHLAALSGFSDCCRKLLSSGFDIDTPDDFGRTCLHAAAAGGNLECLNLLLNTGADFNKKDKFGRSPLHYAAANCNYQCLFALVGSGASVNDLDERGCTPLHYAATSDTDGKCLEYLLRNDANPGIRDKQGYNAVHYSAAYGHRLCLQLIASETPLDVLMETSGTDMLSDSDNRATISPLHLAAYHGHHQALEVLVQSLLDLDVRNSSGRTPLDLAAFKGHVECVDVLINQGASILVKDYILKRTPIHAAATNGHSECLRLLIGNAEPQNAVDIQDGNGQTPLMLSVLNGHTDCVYSLLNKGANVDAKDKWGRTALHRGAVTGHEECVDALLQHGAKCLLRDSRGRTPIHLSAACGHIGVLGALLQSAASMDANPATADNHGYTALHWACYNGHETCVELLLEQEVFQKTEGNAFSPLHCAVINDNEGAAEMLIDTLGASIVNATDSKGRTPLHAAAFTDHVECLQLLLSHNAQVNSVDSTGKTPLMMAAENGQTNTVEMLVSSASAELTLQDNSKNTALHLACSKGHETSALLILEKITDRNLINATNAALQTPLHVAARNGLTMVVQELLGKGASVLAVDENGYTPALACAPNKDVADCLALILATMMPVSSSSPLSSLTFNAINRYTNTSKTVSFEALPIMRNEPSSYCSFNNIGGEQEYLYTDVDELNDSDSETY [ANKRD28] | -0.288 | 51.2 | 50.8 | -0.133 | -0.536 | -1.19 |
